Mid-point dissociation concentration of GdnCl data for one substance are collected here from publication PMC7531860.

The target of this assay is CfaE, tip-localized minor adhesive subunit of CFA/I fimbriae (enterotoxigenic Escherichia coli) (UniProt P25734). Nature of the assay: […], fluorescence at 320 nm; […].

Take “mtCfaA (CfaA variant with the triple residue substitution T112I/L114I/V116I on the G1 strand) (natural protein)”: the mid-point dissociation concentration of GdnCl was 0.966 M.
